Results: patent US12715902B2 (dated 2026)

Assays:
Assay in all cases: cytokine release
[1] = target: T1, ATM G2695A peptide on HLA-A*03:01 (human)
T1 peptide: LAGAVNLPK
Source text: (§1) To confirm the specificity and activity of nucleic acid encoding TCRs against ATM and ARID1A, each of the codon optimized nucleic acids were introduced into donor T cells. The chimeric TCR-transduced T cells (TRBV9*01+TRAV14/DV4 chimeric TCR) were co-cultured with dendritic cells expressing wildtype ATM or mutated forms of ATM (G2695V, G2695A, G2695C, or G2695S). The chimeric TCR-transduced T cells (TRBV25-1+TRAV20 chimeric TCR) were co-cultured with dendritic cells expressing wildtype ARID1A or ARID1A H1960fs. After overnight incubation, the supernatant was assessed for production of interferon-gamma using an ELISA. […] See FIGS. 9A and 9B, respectively.

[2] = target: T2, ATM G2695S peptide on HLA-A*03:01 (human)
T2 peptide: LAGSVNLPK
Source text: as §1

[3] = target: T3, ATM G2695C peptide on HLA-A*03:01 (human)
T3 peptide: LAGCVNLPK
Source text: as §1

[4] = target: T4, ATM G2695V peptide on HLA-A*03:01 (human)
T4 peptide: LAGVVNLPK
Source text: as §1

[5] = target: T5, ATM wild type (glycine at 2695) peptide on HLA-A*03:01 (human)
T5 peptide: LAGGVNLPK
Source text: as §1

B1: TRBV9*01+TRAV14/DV4 TCR (TCR, V domains shown)
Valpha: AQKITQTQPGMFVQEKEAVTLDCTYDTSDQSYGLFWYKQPSSGEMIFLIYQGSYDEQNATEGRYSLNFQKARKSANLVISASQLGDSAMYFCAMREQGAQKLVFGQGTRLTINP
Vbeta: DSGVTQTPKHLITATGQQVTLRCSPRSGDLSVYWYQQSLDQGLQFLIQYYNGEERAKGNILERFSAQQFPDLHSELNLSSLELGDSALYFCASSAAVHYGYTFGSGTRLTVV
binding result [1]: recognises | binding result [2]: recognises | binding result [3]: recognises | binding result [4]: recognises | binding result [5]: no recognition
